From article PMC6366900, “Pat1 promotes processing body assembly by enhancing the phase separation of the DEAD-box ATPase Dhh1 and RNA” (eLife, 2019)

T1: Dhh1 (full-length) (S. cerevisiae, UniProt P39517 1-506)
T1 construct: Dhh1, DEAD-box ATPase, S. cerevisiae, full-length; also called DEAD-box ATPase Dhh1; source: purified as described previously (Mugler et al., 2016)
T1 sequence (looked up): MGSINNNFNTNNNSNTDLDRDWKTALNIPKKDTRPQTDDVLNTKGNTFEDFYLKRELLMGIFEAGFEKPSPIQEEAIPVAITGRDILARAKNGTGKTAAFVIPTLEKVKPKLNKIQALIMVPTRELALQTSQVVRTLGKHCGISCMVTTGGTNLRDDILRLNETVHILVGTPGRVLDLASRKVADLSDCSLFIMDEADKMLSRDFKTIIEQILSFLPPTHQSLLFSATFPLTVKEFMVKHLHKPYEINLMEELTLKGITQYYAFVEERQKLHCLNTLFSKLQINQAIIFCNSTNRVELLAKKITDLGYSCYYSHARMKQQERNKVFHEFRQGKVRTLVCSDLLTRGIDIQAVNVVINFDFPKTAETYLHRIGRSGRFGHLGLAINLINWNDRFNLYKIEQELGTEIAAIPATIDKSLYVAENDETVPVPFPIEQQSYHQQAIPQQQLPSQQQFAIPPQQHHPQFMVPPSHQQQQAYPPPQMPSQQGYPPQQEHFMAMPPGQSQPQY


Target: T1, Dhh1 (full-length)
Assay: pull-down; GST-Pat1-NC and mutants bound to GST-slurry as bait, Dhh1 as prey; 1 hr at 4°C; wash buffer 300 mM NaCl, 10 mM Tris pH 7.5, 0.05 % NP40, washed five times; 12% acrylamide gel, Coomassie
Details: both partners purified

binding result | Binder
binds | GST-Pat1-NC (domain or fragment, S. cerevisiae, Pat1, S. cerevisiae, N-terminal fragment (Pat1-N), amino acids 5-79; linker, printed as (GGS)4; Cloned into a pETM-CN vector; The His and GST tags were cleaved unless required for pull-down assays; In the droplet assay (functional rows) the protein was Pat1-NC-GFP, not the GST form; also called recombinant Pat1-NC protein; source: E. coli BL21 DE3, purified (Ni2+ sepharose, Superdex 200); not …) GLENSGNARDGPLDFEESYKGYGEHELEENDYLNDETFGDNVQVGTDFDFGNPHSSGSSGNAIGGNGVGATARSYGGSGGSGGSGGSSSYAFNNGNGATNLNKSGGKKFILELIETVYEEILDLEANLRNGQQTDSTAMWEALHIDDSSYDVNPFISMLSFDKGIKIMPRIFNFLDKQQKLKILQKIFNELSHLQIIILSSYKTTPKPTLTQLKKVDLFQMIILKIIVSFLSNNSNFIEIMGLLLQLIRNNNVSFLTTSKIGLNLITILISRAALIKQDSSRSNILSSPEISTWNEIYDKLFTSLESKIQLIFPPREYNDHIMRLQNDKFMDEAYIWQFLASLALSGKLNHQRIIIDEVRDEIFATINEAETLQKKEKELSVLPQRSQELDTELKSIIYNKEKLYQDLNLFLNVMGLVY
binds | GST-Pat1-NC^EE (domain or fragment, S. cerevisiae, Pat1, S. cerevisiae, N-terminal fragment (Pat1-N), amino acids 5-79; linker, printed as (GGS)4; Mutant of m1; also called Pat1^EE; phospho-mimetic mutant; source: E. coli BL21 DE3, purified (Ni2+ sepharose, Superdex 200); not shown: GST, N-terminal, kept) GLENSGNARDGPLDFEESYKGYGEHELEENDYLNDETFGDNVQVGTDFDFGNPHSSGSSGNAIGGNGVGATARSYGGSGGSGGSGGSEEYAFNNGNGATNLNKSGGKKFILELIETVYEEILDLEANLRNGQQTDSTAMWEALHIDDSSYDVNPFISMLSFDKGIKIMPRIFNFLDKQQKLKILQKIFNELSHLQIIILSSYKTTPKPTLTQLKKVDLFQMIILKIIVSFLSNNSNFIEIMGLLLQLIRNNNVSFLTTSKIGLNLITILISRAALIKQDSSRSNILSSPEISTWNEIYDKLFTSLESKIQLIFPPREYNDHIMRLQNDKFMDEAYIWQFLASLALSGKLNHQRIIIDEVRDEIFATINEAETLQKKEKELSVLPQRSQELDTELKSIIYNKEKLYQDLNLFLNVMGLVY
